Measurements as given in the supplement of paper PMC10567573.

B1: WEE1 (parent)
chain: FISRTSIPNAASEEGDEDDWASNK

Variants of: B1
Test: protein stability index of a GFP-peptide fusion (GPS, HEK-293T) (PSI 1-6); higher = more stable
Settings: c terminus: a fixed tail appended
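Also: lentivirally expressed fusions sorted by FACS into six bins by GFP to DsRed ratio, PSI derived from sequencing read proportions per bin multiplied by bin number.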

Protein stability index, by site and new letter:
D16: M 3.61 | P 3.55 | N 3.8 | F 3.63 | R 4.17 | T 3.49 | I 4 | Y 3.46 | G 3.76 | S 3.65 | K 3.81 | Q 4.02 | A 3.72 | V 3.86 | L 3.83 | W 3.23 | E 3.94 | C 3.74 | H 3.23
P8: N 4.31 | M 3.51 | R 3.69 | Y 2.16 | S 4.05 | A 3.93 | H 3.41 | L 2.92 | K 4.12 | G 2.17 | D 4.68 | F 3.19 | C 3.18 | Q 3.96 | I 3.82 | W 2.01 | V 3.48 | T 4.1 | E 3.82
K24: W 2.94 | R 3.08 | E 4.69 | Q 4.46 | P 4.54 | S 4.53 | T 4.12 | L 4.04 | Y 3.94 | D 4.73 | N 4.23 | I 4.12 | C 4.15 | A 4.19 | G 4.01 | F 4.04 | V 3.58 | H 3.91 | M 3.82
S12: E 4.34 | R 4.37 | M 3.68 | Y 3.76 | F 3.68 | I 3.85 | K 3.75 | A 3.64 | L 4.03 | P 4.18 | T 3.56 | V 3.91 | H 3.93 | W 3.47 | G 4.13 | Q 4.3 | D 4.26 | C 3.97 | N 4.07
N9: Q 4.28 | G 4.38 | S 3.84 | W 2.46 | K 4.13 | M 3.25 | H 3.93 | R 3.35 | D 4.34 | T 4.21 | I 3.77 | P 3.91 | E 4.64 | V 3.93 | L 3.79 | A 3.66 | F 2.87 | C 3.44 | Y 2.35
D18: Q 3.56 | S 3.46 | R 3.81 | K 3.76 | W 2.54 | F 2.5 | T 3.5 | P 3.6 | L 3.16 | E 4.22 | M 3.03 | G 3.55 | V 3.35 | N 3.27 | I 3.53 | Y 2.5 | A 3.62 | H 2.23 | C 3.28
D19: Y 3.27 | K 3.77 | F 2.31 | S 3.78 | G 3.82 | L 2.48 | E 3.96 | H 3.61 | Q 3.87 | I 2.67 | W 2.37 | P 3.37 | V 3.02 | R 3.5 | C 3.34 | A 3.77 | N 3.72 | T 3.58 | M 3.06
W20: N 4.51 | V 4.81 | Q 4.7 | H 4.44 | A 4.79 | F 4.81 | L 4.23 | M 4.44 | G 4.52 | I 4.21 | T 4.46 | Y 4.23 | C 4.75 | E 4.75 | D 4.92 | R 4.46 | K 3.42 | S 4.93 | P 4.57
A11: C 3.47 | S 4.23 | T 4.19 | P 3.95 | M 3.95 | K 3.69 | Y 3.63 | N 3.79 | Q 4.21 | W 2.45 | R 3.78 | V 3.92 | D 4.12 | F 3.47 | L 4.13 | E 4.37 | H 4.4 | I 3.48 | G 4.23
S22: Q 3.9 | W 2.71 | D 4.51 | N 4.11 | H 3.92 | Y 4.08 | A 4.15 | E 4.18 | V 3.96 | I 4.24 | T 4.23 | P 3.14 | G 2.83 | F 3.96 | K 4.38 | M 3.88 | L 3.52 | C 3.87 | R 3.99
N23: M 3.57 | K 3.93 | D 3.92 | G 4.33 | C 3.73 | R 4.21 | H 3.76 | W 3.65 | F 3.94 | L 3.45 | A 3.94 | P 3.67 | Q 3.82 | Y 3.64 | T 4.22 | S 4.16 | I 3.79 | V 2.71 | E 4.22
I7: Y 2.72 | W 2.82 | S 4.36 | V 3.78 | T 4.53
E17: S 3.72 | Y 3.59 | R 3.67 | T 3.64 | K 3.73 | N 2.13 | H 4.05 | L 3.11 | V 3.35 | I 3.8 | A 3.73 | W 3.04 | G 3.75 | F 3.01 | M 3.67 | D 4.06 | C 3.43 | Q 3.79 | P 3.37
A10: Y 3.17 | R 3.97 | Q 4.16 | E 4.35 | L 3.93 | G 4.13 | D 3.15 | K 3.65 | V 3.57 | I 3.56 | F 3.24 | S 4.34 | W 2.15 | N 3.86 | M 3.54 | C 3.67 | T 3.89 | P 4.21 | H 4.06
E14: P 3.98 | C 4.11 | N 3.78 | M 3.79 | I 3.64 | A 4.43 | W 3.02 | K 4.03 | Y 4.02 | Q 3.91 | S 3.66 | H 3.75 | R 3.39 | D 3.88 | V 3.35 | F 3.53 | G 3.33 | T 3.99 | L 3.56
G15: Q 3.78 | V 4.46 | D 4.12 | T 4.17 | M 3.72 | K 4.18 | H 3.91 | Y 4.13 | E 4.62 | A 4.17 | I 4.29 | P 3.79 | S 4.42 | C 4.51 | L 3.74 | R 3.26 | W 3.27 | N 3.78 | F 3.83
E13: H 3.67 | R 4.15 | A 3.85 | T 3.55 | F 3.65 | V 3.29 | S 3.9 | M 3.64 | Y 3.46 | L 3.5 | Q 3.81 | W 3.54 | K 3.5 | N 3.51 | G 3.78 | C 3.62 | I 3.03 | P 4.43 | D 3.68
A21: E 4.5 | F 3.72 | K 4.21 | Q 3.62 | G 4.63 | M 3.77 | S 4.1 | H 4.09 | W 3.53 | V 3.81 | I 3.83 | C 4.1 | T 4.59 | R 4.39 | Y 3.9 | D 4.77 | L 3.29 | P 3.7 | N 3.76
